Test results as given in US20240067716A1, “IONIC LIQUID FORMULATIONS FOR TREATING INFLAMMATORY AND AUTOIMMUNE DISEASES” (i2O Therapeutics, Inc., priority 2021, published 2024).

Assay: Local delivery of infliximab to small intestinal tissue after intrajejunal or intravenous dosing, LC-MS/MS
Type: in vivo, Wistar rats
Conditions: rat, 5 h
Excerpt: Adult non-diabetic male Wistar rats were fasted overnight but given free access to water and subsequently dosed via intrajejunal injection (IJ) with infliximab and one of various choline-based ionic liquids, dosed via IJ with infliximab and saline, or dosed via intravenous injection (IV) with infliximab and saline.

infliximab
% of the injected infliximab dose in the local small intestinal tissue (intrajejunal injection (IJ)): 0.06%
% of the injected antibody dose in the small intestinal tissue (intravenous injection (IV), in saline): 0.95%
